# From patent US20250250587A1 (published 2025)
# T1: Neo12 (neoantigen; source protein not named) peptide on HLA-A*02:01 (human)
# T1 peptide: YLTHRVDVI
# B1: Neo12 neoTCR (TCR, V domains shown)
# Valpha: QKEVEQDPGPLSVPEGAIVSLNCTYSNSAFQYFMWYRQYSRKGPELLMYTYSSGNKEDGRFTAQVDKSSKYISLFIRDSQPSDSATYLCAMSEDYKLSFGAGTTVTVRA
# Vbeta: ETGVTQTPRHLVMGMTNKKSLKCEQHLGHNAMYWYKQSAKKPLELMFVYSLEERVENNSVPSRFSPECPNSSHLFLHLHTLQPEDSALYLCASSQSRGAQQYFGPGTRLTVT
# Target: T1, Neo12 (neoantigen; source protein not …)
# Assay: multimer staining
binder,measurement,value
B1,binding result,recognises
